Results on one molecule are retold here after patent US20220340657A1 (L AND L BIO CO LTD NINGBO CHINA, published 2022).

Assay [1] has as its target T1, human LAG-3-his (human, UniProt P18627 23-422).
T1 construct: range 23-422; also called hLAG-3-his; hLAG-3
T1 sequence: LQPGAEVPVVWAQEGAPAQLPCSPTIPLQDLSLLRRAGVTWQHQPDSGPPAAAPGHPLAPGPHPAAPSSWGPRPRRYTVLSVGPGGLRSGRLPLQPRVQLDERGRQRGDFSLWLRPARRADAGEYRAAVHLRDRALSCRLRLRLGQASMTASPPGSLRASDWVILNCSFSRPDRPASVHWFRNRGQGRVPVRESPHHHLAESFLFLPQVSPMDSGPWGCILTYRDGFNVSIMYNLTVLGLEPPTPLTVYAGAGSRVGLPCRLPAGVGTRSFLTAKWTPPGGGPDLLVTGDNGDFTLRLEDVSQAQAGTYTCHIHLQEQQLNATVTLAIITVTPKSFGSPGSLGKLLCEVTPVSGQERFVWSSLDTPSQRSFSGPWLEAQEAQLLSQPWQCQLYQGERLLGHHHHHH
Put plainly: ELISA on coated human LAG-3, OD450 (Example 3, Example 13) [panel a].

For assay [2], the target named is T2, bio-LAG3-mFc (human, UniProt P18627 23-450, biotin-labelled).
T2 construct: also called hLAG-3
T2 sequence (looked up): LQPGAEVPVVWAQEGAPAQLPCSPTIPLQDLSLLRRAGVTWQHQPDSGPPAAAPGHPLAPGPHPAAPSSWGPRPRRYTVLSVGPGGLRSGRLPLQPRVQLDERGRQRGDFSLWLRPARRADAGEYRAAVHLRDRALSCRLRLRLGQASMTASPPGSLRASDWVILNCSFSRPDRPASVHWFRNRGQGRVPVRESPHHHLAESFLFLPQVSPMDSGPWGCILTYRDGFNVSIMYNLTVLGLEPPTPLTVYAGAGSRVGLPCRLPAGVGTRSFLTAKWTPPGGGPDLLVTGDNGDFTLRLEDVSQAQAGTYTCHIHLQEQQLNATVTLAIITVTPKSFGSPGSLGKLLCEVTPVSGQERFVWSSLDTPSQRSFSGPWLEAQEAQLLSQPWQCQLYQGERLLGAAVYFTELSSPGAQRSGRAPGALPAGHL
Nature of the assay: blocking of LAG3 binding to Daudi cells, same experiment. The protocol:
The Daudi cell line (ATCC, CCL-213) was expanded and seeded into 96-well microplate at a density of 2×10⁵ cells/well, and then centrifuged at 1600 rpm for 10 min; thereafter the cells were fixed with 100 μl/well of a fixative solution for immunostaining (Shanghai Beyotime Biotechnology Co., Ltd., Cat. No.: P0098) for half an hour at room temperature. After washing with PBS (BasalMedia Biology, Cat. No.: B320) once, 5% milk was added with 230 μl per well, and the microplate was incubated for 2 hours at 37° C. for blocking, then was washed three times with PBST. […] The microplate was then incubated for 1 hour at 37° C. and washed 5 times with PBST. 50 μl/well of 1:1000 diluted streptavidin-HRP secondary antibody (GenScript, Cat. No.: M00091) was added to the microplate and incubated for 1 hour at 37° C. After washing the microplate 5 times with PBST, 50 μl/well TMB (Surmodic, Cat. No.: TTMB-1000-01) was added to the microplate for color development, and 50 μl/well 1M H₂SO₄ was added to stop the reaction. The microplate was then read by a microplate reader (MuitiskanGo Thermo, model 511919200), and the data were analyzed using GraphPad prism 5.

Assay [3] deals with T1, human LAG-3-his. Put plainly: ELISA on coated human LAG-3, OD450 (Example 3, Example 13) [panel a]. This is another data set of the same source. In general terms: An ELISA detects its analyte on a solid surface through an enzyme-linked reagent.
Assay [4] deals with T2, bio-LAG3-mFc. Nature of the assay: blocking ELISA, LAG-3 on Daudi cells.
The target of assay [5] is T1, human LAG-3-his. Nature of the assay: ELISA on coated human LAG-3, OD450 (Example 3, Example 13) [panel a]. This is another data set of the same source.
In assay [6] the target is T1, human LAG-3-his. The assay is described as above. This is another data set of the same source.

Several values for one entry are separate records, joined by “and”; a condition that tells them apart may be missing. Equal entries are not always repeated. Where two headings read alike, the source gives them in different places. Some results are limits rather than exact numbers.

B1: humanized anti-human LAG-3 antibody Ab2317 (antibody, human IgG4 S228P, kappa, V domains shown)
VH: QVQLVQSGAEVKKPGASVKVSCKASGYTFTDYEMHWVKQAPGQGLEWIGGIDPETEGIAYNQKFRGRATLTADKSTSTAYMELRSLRSDDTAVYYCTNSNYYGGREAWFAYWGQGTLVTVSS
VL: DIQMTQSPSSLSASVGDRVTITCRASQDIGSSLNWYQQKPGKAPKRLIYATSSLDSGVPSRFSGSRSGSDFTLTISSLQPEDFATYYCLQYVTSPLTFGGGTKVEIKR
notes: LG2317 / LG2343, human kappa / hIgG4
As to B1, the “EC50 (read off the curve)” value in assay [1], in assay [3], in assay [5] and in assay [6] was roughly 0.3 nM throughout. Moreover, the IC50 (in general, the point on the concentration scale where inhibition reaches its midpoint) in assay [2] was 9.78 nM and 28 nM. In addition, in assay [4], the “fold stronger blocking activity than Ref” value was no less than 2 times.
